# US20260116991A1 (HAINAN SIMCERE ZAIMING PHARMACEUTICAL, published 2026)
# Target: T1, murine GPC3-his protein (Sino Biological, Cat. No. 50989-M08B) (murine, UniProt Q8CFZ4 25-558)
# T1 construct: Bought protein; also called murine GPC3 protein
# Assay: ELISA, coated murine GPC3-His;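 note: antigen coated on plates at 1 µg/mL, test antibody bound for 2 h at 37 °C, detected with HRP-conjugated secondary antibody and TMB substrate after acid stop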
# Experimental: The specific method is described as follows: The antigen protein was diluted with PBS to a final concentration of 1 μg/mL, and the diluent was added to a 96-well ELISA plate at 50 μL/well. The plate was sealed with a plastic film and incubated at 4° C. overnight, washed twice with PBS the next day, and a blocking solution [PBS+2% (w/w) BSA] was added for blocking at room temperature for 2 h. […] After incubation at 37° C. for 2 h, the plate was washed 3 times with PBS. A horseradish peroxidase (HRP)-labeled secondary antibody (purchased from Merck, Cat. No. AP113P) was added for incubation at 37° C. for 1 h, and the plate was washed 5 times with PBS. A TMB substrate was added at 50 μL/well for incubation at room temperature for 10 min, then a stop solution (1.0M HCl) was added at 50 μL/well. An ELISA plate reader (Multimode Plate Reader, EnSight, purchased from Perkin Elmer) was used to read OD_{450 nm} values, with results as shown in Table 4 to Table 6, FIG. 1A, FIG. 1B, and FIG. 1C.
# T1 sequence (Q8CFZ4 25-558 limits assumed): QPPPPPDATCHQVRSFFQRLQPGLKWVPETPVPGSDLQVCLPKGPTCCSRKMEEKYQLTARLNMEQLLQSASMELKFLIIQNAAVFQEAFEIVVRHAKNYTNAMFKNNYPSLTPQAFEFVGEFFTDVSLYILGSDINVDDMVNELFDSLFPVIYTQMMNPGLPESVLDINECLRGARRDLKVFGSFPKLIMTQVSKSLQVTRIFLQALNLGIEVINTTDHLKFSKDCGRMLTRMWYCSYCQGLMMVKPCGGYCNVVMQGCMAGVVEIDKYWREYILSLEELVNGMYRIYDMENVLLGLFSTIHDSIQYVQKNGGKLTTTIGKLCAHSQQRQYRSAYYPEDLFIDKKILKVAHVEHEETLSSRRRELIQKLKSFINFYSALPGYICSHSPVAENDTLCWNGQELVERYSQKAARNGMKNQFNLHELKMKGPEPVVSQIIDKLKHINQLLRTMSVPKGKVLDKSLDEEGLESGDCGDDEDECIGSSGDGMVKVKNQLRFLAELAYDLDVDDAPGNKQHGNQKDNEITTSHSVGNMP
OD450 at 0.0001 nM antibody [OD450 nm],OD450 at 0.001 nM antibody [OD450 nm],OD450 at 0.01 nM antibody [OD450 nm],OD450 at 0.1 nM antibody [OD450 nm],OD450 at 1 nM antibody [OD450 nm],OD450 at 10 nM antibody [OD450 nm],OD450 at 100 nM antibody [OD450 nm],Binder
0.05,0.05,0.06,0.22,0.17,0.91,0.17,"F1.136.7 human-murine chimeric antibody (antibody, human IgG1, kappa, V domains shown) VH: EVQLQQSGPVMVKPGPSVKISCQTSGFTFTDYYIHWVKQSHGKSLEWIGLVFPYDGGTNYNQKFKDKATLTLDTSSSTAYMELNSLTSEDSAVYYCARAGGFSYALNYWGQGTSVTVSS VL: DIQMTQSPSSLSASLGGKVTITCKASQDINNYIAWYQHKPGKGPRLLIHFTSTLQPGIPSRFSGSGSGRDYSFSISNLEPEDIATYYCLQYDNLLLTFGAGTKLELKR"
0.04,0.08,0.04,0.04,0.05,0.08,0.09,"F1.153.1 human-murine chimeric antibody (antibody, human IgG1, kappa, V domains shown) VH: QIQLVQSGPELKKPGETVKISCKASGYTFTTAGMQWVQKMPGKGFKWIGWINTHSGEPQYAEDFKGRFAFSLETSASTAYLQISNLKNEDTATYFCARSFYYHGSSFFYFDYWGQGTTLTVSS VL: DIVMTQSQKFMSTTVGDRVSITCKASQNVGTAVAWYQQKPGQSPKLLIYSASNRYTGVPDRFTGSGSGADFTLTISNMQSEDLADYFCQQYSRYPLTFGAGTKLELKR"
0.06,0.13,0.62,2.04,2.67,2.6,3.01,"F1.111.11 human-murine chimeric antibody (antibody, human IgG1, kappa, V domains shown) VH: EVQLQQSGPELVKPGASVKISCKASGYTFTDYYMNWVKQSHGKSLEWIGDIYPNNGDTTYNQRFKGKATLTVDKSSSTAYMELRSLASEDSAVYYCACPYNNPFGYWGQGTLVTVSA VL: DVVMTQTPLSLPVSLGDQASISCRSSQSLVHSNGNTYLHWYLQKPGQSPKLLIYKVSNRFSGVPDRFSGSGSGTDFTLKISRVEAEDLGVYFCSQSTHVPWTFGGGTKLEIKR"
0.05,0.04,0.04,0.05,0.18,0.18,0.37,"F1.3.9 human-murine chimeric antibody (antibody, human IgG1, kappa, V domains shown) VH: QVQLQQPGTELVKPGASVKLSCKASGYTFTSYWIHWVKQRPGQGLEWIGNINPPNAGTNYNEKFKSKATLTVDKSSSTAYMQLSSLTSEDSAVYYCARGRWLLHDYWGQGTTLTVSS VL: DIQMTQSPASLSISVGETVTITCRASENIYSNLAWYQQKQGKSPQLLVYGTKNLAEGVPSRFSGSGSGTQYSLKINSLQSEDFGNYYCQHFWGTPYTFGGGTKLEILR"
0.05,0.09,0.38,1.68,2.49,2.72,2.63,"F2.169.2 human-murine chimeric antibody (antibody, human IgG1, kappa, V domains shown) VH: EVQLVETGGGLVQPKGSLKLSCAASGFSFNTNAMNWVRQAPGKGLEWVARIRSKSNNYATYYADSVKDRFTISRDDSQSMLYLQMNNLKTEDTAMYYCVRDGYYVLFAYWGQGTLVTVSA VL: DVLMTQTPLSLPVSLGDQASISCRFSQSIVNSNGNTYLEWFLQKPGQSPKLLIYKVSNRFSGVPDRFSGSGSGTDFTLKISRVEAEDLGVYYCFQGSHVPFTFGTGTKLEIKR"
0.05,0.05,0.05,0.12,0.32,0.53,0.3,"F1.110.24 human-murine chimeric antibody (antibody, human IgG1, kappa, V domains shown) VH: EVKLVESGGGLVQPGGSLKLSCAASGFTFSDFYMYWVRQTPEKRLEWVAFISNGGGSTYYPDTVKGRFTISRDNVKNTLYLQMSRLKSEDTAMYYCARPDTSWFAYWGQGSLVTVSA VL: DIQMTQTTSSLSASLGDRVTISCRASQDIDNYLNWYQQKPDGTVKVLISYTSRLHSGVPSRFSGSGSGTDYSLTISNLEQEDIATYFCQQGNTLPWTFGGGTKLEIKR"

# Second part, the binder before the results:
Binder,OD450 at 0.0001 nM antibody [OD450 nm],OD450 at 0.001 nM antibody [OD450 nm],OD450 at 0.01 nM antibody [OD450 nm],OD450 at 0.1 nM antibody [OD450 nm],OD450 at 1 nM antibody [OD450 nm],OD450 at 10 nM antibody [OD450 nm],OD450 at 100 nM antibody [OD450 nm]
"F1.118.4 human-murine chimeric antibody (antibody, human IgG1, kappa, V domains shown) VH: QVQLQQSGAELAKPGASVKLSCKASGYSFTSYWIHWVKQRPGQGLEWIGYINPSSGYTKYNQKFKDKATLTADKSSSTAYMQLSSLTYEDSAVYYCARFGSSSFYFDYWGQGTTLTVSS VL: DIVLTQSPASLAVSLGQRATISCRASQSVSSSSYSYMHWYQQKPGQPPKLLIKYASNLDSGVPARFSGSGSGTDFTLNIHPVEEEDTATYYCQHSWEIPAFGGGTKLEIKR",0.05,0.05,0.05,0.05,0.05,0.06,0.07
"F1.62.9 human-murine chimeric antibody (antibody, human IgG1, kappa, V domains shown) VH: QVQLQQSDAELVKPGASVKISCKVSGYIFTDHTIHWMKQRPEQGLEWIGYIYPRDGSIKYNENFKGKATLTADKSSSATYMQLNSLTSEDSAVYFCARPIYYDYAYYFDYWGQGTTLTVSS VL: DVVMTQSPLSLPVSLGDQASISCRSRQSLVHSNGNTYLHWYLQKPGQSPKVLIYKVSNRFSGVPDRFSGSGSGTDFTLKISRVEAEDLGVYFCSQSTHVPYTFGGGTKLEIKR",0.04,0.04,0.05,0.04,0.04,0.06,0.28
"F1.92.17 human-murine chimeric antibody (antibody, human IgG1, kappa, V domains shown) VH: EVQLQQSGPELVKPGASVKMSCKASGYTFTDYNMHWVRQSHGKSLEWIGYINPNNGDTIYNQNFKGKATLTVNKSSSTAYMELRSLTSEDSAVYYCSRTITYYYSMDYWGPGTSVTVSS VL: QIVLTQSPALMSASPGEKVTMTCSASSSVSYMYWYQQKPRSSPKPWIYLTSNLASGVPARFSGSGSGTSYSLTISSMEAEDAATYYCQQWSSNPLTFGAGTKLELKR",0.05,0.05,0.05,0.06,0.11,0.22,0.13
"F1.9.19 human-murine chimeric antibody (antibody, human IgG1, kappa, V domains shown) VH: DVQLQESGPGLVKPSQSLSLTCSVTGYSITSGYYWNWIRQFPGNRLEWMAYISYDGINNYNPSLKNRISIARDTSTNQFFLKLNSVTSEDTATYYCATTTEVALFDHWGQGTTLTVSS VL: DVLLTQTPLSLPVSLGDQASISCRSSQNIVHGNGNTYLEWFLQKPGQSPKLLIYKVSNRFSGVPDRFSGSGSGTDFTLKISRVEAEDLGLYYCFQASHVPWTFGGGTKLEIKR",0.05,0.04,0.05,0.05,0.05,0.05,0.07
"F2.154.1 human-murine chimeric antibody (antibody, human IgG1, kappa, V domains shown) VH: QVQLQQSGAELVRPGASVKLSCKASGYRFTDYEMHWVKQTPVHGLEWIGTIDPETGNTAYTQKFMDKATLTADKSSSTAYMELRSLTSEDSAVYYCTRGYSFTYWGQGTLATVSA VL: DVLMTQTPLSLPVSLGDQASISCRSSQNIVHSNGNTYLQWYLQKPGQSPKLLIFKVSNRFSGVPDRFSGSGSGTDFTLKISRVEAEDLGVYYCFQGSHVPFTFGTGTKLEIKR",0.05,0.05,0.05,0.05,0.05,0.05,0.06
"F1.145.22 human-murine chimeric antibody (antibody, human IgG1, kappa, V domains shown) VH: QVQLQQSGTDLARPGASVKLSCKASGYTFTSFGISWVKQRTGQGLEWIGEIYPRSGSPYYNEKFTGKATLTADKSSSTAYMELRSLTSEDSAVYFCAKDFGSSYVFDYWGQGTALTVSS VL: DIQMTQSPASLSASVGETVTITCRASENIYSYLTWYQQKQGKSPQLLVYNAKTLAEGVPSRFSGSGSGTQFSLKINSLQPEDFGTYYCQHHYGTPPTFGTGTKLDLKR",0.05,0.06,0.08,0.75,0.77,1.62,1.32
"F2.55.11 human-murine chimeric antibody (antibody, human IgG1, kappa, V domains shown) VH: EVKLVESGGGLVKPGGSLKLSCAASGLTFSTCTMSWVRQTPAKRLEWVATISSGGGNTYYPDSVKGRFTISRDNARNTLYLQMSSLRSEDTAMYYCVRLYYDGSPYAMDYWGQGTSVTVSS VL: DIQMTQTTSSLSASLGDRVTISCRASQDISNHLNWYQQKPDGTVKLLIYYTSRLHSGVPSRFSGSGSGTDYSLTISNLEQEDIATYFCQQDSKPPPTFGSGTKLEIKR",0.05,0.05,0.05,0.05,0.05,0.07,0.16
